Data set [1] deals with HeLa Kyoto. The data set can be described thus: solubility in G1/S (NP-40 vs SDS abundance) (log2 ratio); higher = more soluble. Particulars: cell cycle stage: G1/S.
Data set [2] concerns HeLa Kyoto. The data set can be described thus: melting temperature (median over replicates), in situ; higher = more thermally stable.
Data set [3] has as its system HeLa Kyoto. The data set can be described thus: solubility change mitosis vs G1/S (difference of NP-40 vs SDS log2 ratios) (log2 ratio difference); higher = more soluble in mitosis.
Data set [4] concerns HeLa Kyoto. The data set can be described thus: thermal stability score vs G1/S (z-score of summed log2 fold changes over temperatures); higher = more thermally stable than in G1/S.
Where [5] appears, read: cell cycle stage: early G1 (4.5 h after nocodazole release).

The text below walks through data of the supplement of paper PMC5998384.
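For melting temperature (median over replicates), in situ in this document: HeLa Kyoto cells synchronized by double thymidine or nocodazole block, proteins quantified by TMT10plex mass spectrometry, three independent biological replicates.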
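For solubility change mitosis vs G1/S (difference of NP-40 vs SDS log2 ratios) in this document: synchronized HeLa Kyoto cells (double thymidine block for G1/S, nocodazole release for mitosis), protein amounts in NP-40 versus SDS lysates quantified by mass spectrometry, three biological replicates.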
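For solubility in G1/S (NP-40 vs SDS abundance) in this document: HeLa Kyoto cells arrested at G1/S by double thymidine block, proteins quantified by TMT10plex mass spectrometry in mild NP-40 versus SDS extracts, three biological replicates.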
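For thermal stability score vs G1/S (z-score of summed log2 fold changes over temperatures) in this document: synchronized HeLa Kyoto cells, proteins quantified by TMT10plex mass spectrometry, three biological replicates, mitosis taken 0.5 h after nocodazole release, G1/S directly after double thymidine block.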

In the case of “MSFVAGVIRRLDETVVNRIAAGEVIQRPANAIKEMIENCLDAKSTSIQVIVKEGGLKLIQIQDNGTGIRKEDLDIVCERFTTSKLQSFEDLASISTYGFRGEALASISHVAHVTITTKTADGKCAYRASYSDGKLKAPPKPCAGNQGTQITVEDLFYNIATRRKALKNPSEEYGKILEVVGRYSVHNAGISFSVKKQGETVADVRTLPNASTVDNIRSIFGNAVSRELIEIGCEDKTLAFKMNGYISNANYSVKKCIFLLFINHRLVESTSLRKAIETVYAAYLPKNTHPFLYLSLEISPQNVDVNVHPTKHEVHFLHEESILERVQQHIESKLLGSNSSRMYFTQTLLPGLAGPSGEMVKSTTSLTSSSTSGSSDKVYAHQMVRTDSREQKLDAFLQPLSKPLSSQPQAIVTEDKTDISSGRARQQDEEMLELPAPAEVAAKNQSLEGDTTKGTSEMSEKRGPTSSNPRKRHREDSDVEMVEDDSRKEMTAACTPRRRIINLTSVLSLQEEINEQGHEVLREMLHNHSFVGCVNPQWALAQHQTKLYLLNTTKLSEELFYQILIYDFANFGVLRLSEPAPLFDLAMLALDSPESGWTEEDGPKEGLAEYIVEFLKKKAEMLADYFSLEIDEEGNLIGLPLLIDNYVPPLEGLPIFILRLATEVNWDEEKECFESLSKECAMFYSIRKQYISEESTLSGQQSEVPGSIPNSWKWTVEHIVYKALRSHILPPKHFTEDGNILQLANLPDLYKVFERC [MLH1]”, the “solubility in G1/S (log2)” value in data set [1] was -0.0862. Moreover, the melting temperature was determined as 46.3 °C in data set [2] (cell cycle stage: G1/S) and 48.8 °C in data set [2] (cell cycle stage: mitosis). Also, the “solubility change mitosis (log2)” value in data set [3] was -0.21. In addition, the thermal stability score in data set [4] (setting [5]) stood at 3.37; in data set [4] (cell cycle stage: mitosis), 5.51.
“MAEAEGESLESWLNKATNPSNRQEDWEYIIGFCDQINKELEGPQIAVRLLAHKIQSPQEWEALQALTVLEACMKNCGRRFHNEVGKFRFLNELIKVVSPKYLGDRVSEKVKTKVIELLYSWTMALPEEAKIKDAYHMLKRQGIVQSDPPIPVDRTLIPSPPPRPKNPVFDDEEKSKLLAKLLKSKNPDDLQEANKLIKSMVKEDEARIQKVTKRLHTLEEVNNNVRLLSEMLLHYSQEDSSDGDRELMKELFDQCENKRRTLFKLASETEDNDNSLGDILQASDNLSRVINSYKTIIEGQVINGEVATLTLPDSEGNSQCSNQGTLIDLAELDTTNSLSSVLAPAPTPPSSGIPILPPPPQASGPPRSRSSSQAEATLGPSSTSNALSWLDEELLCLGLADPAPNVPPKESAGNSQWHLLQREQSDLDFFSPRPGTAACGASDAPLLQPSAPSSSSSQAPLPPPFPAPVVPASVPAPSAGSSLFSTGVAPALAPKVEPAVPGHHGLALGNSALHHLDALDQLLEEAKVTSGLVKPTTSPLIPTTTPARPLLPFSTGPGSPLFQPLSFQSQGSPPKGPELSLASIHVPLESIKPSSALPVTAYDKNGFRILFHFAKECPPGRPDVLVVVVSMLNTAPLPVKSIVLQAAVPKSMKVKLQPPSGTELSPFSPIQPPAAITQVMLLANPLKEKVRLRYKLTFALGEQLSTEVGEVDQFPPVEQWGNL [GGA3]”: in data set [1], the “solubility in G1/S (log2)” value stood at 0.445. Moreover, the melting temperature turned out to be 50.1 °C in data set [2] (cell cycle stage: G1/S) and 50.7 °C in data set [2] (cell cycle stage: mitosis). The “solubility change mitosis (log2)” value in data set [3] was -0.218. Further, the thermal stability score came to 1.01 in data set [4] (setting [5]) and 0.468 in data set [4] (cell cycle stage: mitosis).
Consider “MSLAFKIFFPQTLRALSRKELCLFRKHHWRDVRQFSQWSETDLLHGHPLFLRRKPVLSFQGSHLRSRATYLVFLPGLHVGLCSGPCEMAEQRFCVDYAKRGTAGCKKCKEKIVKGVCRIGKVVPNPFSESGGDMKEWYHIKCMFEKLERARATTKKIEDLTELEGWEELEDNEKEQITQHIADLSSKAAGTPKKKAVVQAKLTTTGQVTSPVKGASFVTSTNPRKFSGFSAKPNNSGEAPSSPTPKRSLSSSKCDPRHKDCLLREFRKLCAMVADNPSYNTKTQIIQDFLRKGSAGDGFHGDVYLTVKLLLPGVIKTVYNLNDKQIVKLFSRIFNCNPDDMARDLEQGDVSETIRVFFEQSKSFPPAAKSLLTIQEVDEFLLRLSKLTKEDEQQQALQDIASRCTANDLKCIIRLIKHDLKMNSGAKHVLDALDPNAYEAFKASRNLQDVVERVLHNAQEVEKEPGQRRALSVQASLMTPVQPMLAEACKSVEYAMKKCPNGMFSEIKYDGERVQVHKNGDHFSYFSRSLKPVLPHKVAHFKDYIPQAFPGGHSMILDSEVLLIDNKTGKPLPFGTLGVHKKAAFQDANVCLFVFDCIYFNDVSLMDRPLCERRKFLHDNMVEIPNRIMFSEMKRVTKALDLADMITRVIQEGLEGLVLKDVKGTYEPGKRHWLKVKKDYLNEGAMADTADLVVLGAFYGQGSKGGMMSIFLMGCYDPGSQKWCTVTKCAGGHDDATLARLQNELDMVKISKDPSKIPSWLKVNKIYYPDFIVPDPKKAAVWEITGAEFSKSEAHTADGISIRFPRCTRIRDDKDWKSATNLPQLKELYQLSKEKADFTVVAGDEGSSTTGGSSEENKGPSGSAVSRKAPSKPSASTKKAEGKLSNSNSKDGNMQTAKPSAMKVGEKLATKSSPVKVGEKRKAADETLCQTKVLLDIFTGVRLYLPPSTPDFSRLRRYFVAFDGDLVQEFDMTSATHVLGSRDKNPAAQQVSPEWIWACIRKRRLVAPC [LIG3]”, for which the “solubility in G1/S (log2)” value in data set [1] is -0.13. In addition, the melting temperature in data set [2] (cell cycle stage: G1/S) was found to be 46.3 °C; in data set [2] (cell cycle stage: mitosis) it was 48.8 °C. The “solubility change mitosis (log2)” value in data set [3] amounted to 0.0705. Further, the values for the thermal stability score in data set [4] (setting [5]) and in data set [4] (cell cycle stage: mitosis) were 0.91 and 2.49, respectively.
On to “MADTDLFMECEEEELEPWQKISDVIEDSVVEDYNSVDKTTTVSVSQQPVSAPVPIAAHASVAGHLSTSTTVSSSGAQNSDSTKKTLVTLIANNNAGNPLVQQGGQPLILTQNPAPGLGTMVTQPVLRPVQVMQNANHVTSSPVASQPIFITTQGFPVRNVRPVQNAMNQVGIVLNVQQGQTVRPITLVPAPGTQFVKPTVGVPQVFSQMTPVRPGSTMPVRPTTNTFTTVIPATLTIRSTVPQSQSQQTKSTPSTSTTPTATQPTSLGQLAVQSPGQSNQTTNPKLAPSFPSPPAVSIASFVTVKRPGVTGENSNEVAKLVNTLNTIPSLGQSPGPVVVSNNSSAHGSQRTSGPESSMKVTSSIPVFDLQDGGRKICPRCNAQFRVTEALRGHMCYCCPEMVEYQKKGKSLDSEPSVPSAAKPPSPEKTAPVASTPSSTPIPALSPPTKVPEPNENVGDAVQTKLIMLVDDFYYGRDGGKVAQLTNFPKVATSFRCPHCTKRLKNNIRFMNHMKHHVELDQQNGEVDGHTICQHCYRQFSTPFQLQCHLENVHSPYESTTKCKICEWAFESEPLFLQHMKDTHKPGEMPYVCQVCQYRSSLYSEVDVHFRMIHEDTRHLLCPYCLKVFKNGNAFQQHYMRHQKRNVYHCNKCRLQFLFAKDKIEHKLQHHKTFRKPKQLEGLKPGTKVTIRASRGQPRTVPVSSNDTPPSALQEAAPLTSSMDPLPVFLYPPVQRSIQKRAVRKMSVMGRQTCLECSFEIPDFPNHFPTYVHCSLCRYSTCCSRAYANHMINNHVPRKSPKYLALFKNSVSGIKLACTSCTFVTSVGDAMAKHLVFNPSHRSSSILPRGLTWIAHSRHGQTRDRVHDRNVKNMYPPPSFPTNKAATVKSAGATPAEPEELLTPLAPALPSPASTATPPPTPTHPQALALPPLATEGAECLNVDDQDEGSPVTQEPELASGGGGSGGVGKKEQLSVKKLRVVLFALCCNTEQAAEHFRNPQRRIRRWLRRFQASQGENLEGKYLSFEAEEKLAEWVLTQREQQLPVNEETLFQKATKIGRSLEGGFKISYEWAVRFMLRHHLTPHARRAVAHTLPKDVAENAGLFIDFVQRQIHNQDLPLSMIVAIDEISLFLDTEVLSSDDRKENALQTVGTGEPWCDVVLAILADGTVLPTLVFYRGQMDQPANMPDSILLEAKESGYSDDEIMELWSTRVWQKHTACQRSKGMLVMDCHRTHLSEEVLAMLSASSTLPAVVPAGCSSKIQPLDVCIKRTVKNFLHKKWKEQAREMADTACDSDVLLQLVLVWLGEVLGVIGDCPELVQRSFLVASVLPGPDGNINSPTRNADMQEELIASLEEQLKLSGEHSESSTPRPRSSPEETIEPESLHQLFEGESETESFYGFEEADLDLMEI [POGZ]”, for which the “solubility in G1/S (log2)” value in data set [1] is -0.704. In data set [2] (cell cycle stage: mitosis), this sequence gave a melting temperature of 49.5 °C. In addition, in data set [3], the “solubility change mitosis (log2)” value is 0.341. Also, the thermal stability score came to 1.1 in data set [4] (setting [5]) and 2.58 in data set [4] (cell cycle stage: mitosis).
